# Results from article PMC5186407 (Journal of molecular biology, 2016).
# Assays:
# [1] = target: Hsp70 NBD (Homo sapiens) (UniProt P0DMV8); conditions: cited from earlier work
# [2] = target: Hsp27-3D, triple phospho-mimetic mutant of Hsp27 (human) (UniProt P04792); experiment: flow cytometry protein interaction assay
# [3] = target: Hsp27c, truncated Hsp27 with only the core α-crystallin domain (human); experiment: flow cytometry protein interaction assay
# [4] = target: BAG3 with the first IPV motif mutated to GPG (IPV1) (UniProt O95817); experiment: ITC
# [5] = target: BAG3 Δ200–213 (UniProt O95817); experiment: ITC
# [6] = target: BAG3 Δ87–101 (UniProt O95817); experiment: ITC
# [7] = target: BAG3 Δ87–101 & Δ200–213 (UniProt O95817 1-575, Δ87–101 | Δ200–213, Alexa Fluor label in the FCPIA experiments); experiment: flow cytometry protein interaction assay
# Hsp70 NBD (Homo sapiens), sequence (P0DMV8 2-386): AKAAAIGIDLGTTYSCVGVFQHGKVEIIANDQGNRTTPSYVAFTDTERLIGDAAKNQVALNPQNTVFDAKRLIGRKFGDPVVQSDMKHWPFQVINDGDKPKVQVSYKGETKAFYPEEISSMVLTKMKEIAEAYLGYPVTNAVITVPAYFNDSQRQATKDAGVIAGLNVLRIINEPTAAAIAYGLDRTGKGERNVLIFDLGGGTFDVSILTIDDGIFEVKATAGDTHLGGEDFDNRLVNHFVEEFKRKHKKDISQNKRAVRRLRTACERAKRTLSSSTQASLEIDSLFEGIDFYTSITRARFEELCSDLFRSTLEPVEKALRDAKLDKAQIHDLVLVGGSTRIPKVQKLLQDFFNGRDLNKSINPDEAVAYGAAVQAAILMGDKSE
molecule,measurement,setting,value
BAG3 (from UniProt O95817),Kd,[1],0.01 µM
BAG3 Δ87–101 & Δ200–213 (from UniProt O95817 1-575) (natural protein),Kd,[2],> 50 µM
same,fold weakening of the affinity against BAG3 with both IPV motifs,[3],> 25 fold
"Hsp27c, truncated Hsp27 with only the core α-crystallin domain (domain or fragment)",stoichiometry N,[4],1 Hsp27c:BAG3
same,stoichiometry N,[5],1 Hsp27c:BAG3
same,stoichiometry N,[6],1 Hsp27c:BAG3
"Hsp20 (HSPB6) (natural protein, human, UniProt O14558 1-160, looked up, biotin (EZ-link NHS-Biotin) in the FCPIA experiments) MEIPVPVQPSWLRRASAPLPGLSAPGRLFDQRFGEGLLEAELAALCPTTLAPYYLRAPSVALPVAQVPTDPGHFSVLLDVKHFSPEEIAVKVVGEHVEVHARHEERPDEHGFVAREFHRRYRLPPGVDPAAVTSALSPEGVLSIQAAPASAQAPPPAAAK",Kd,[7],> 50 µM
